Measurements taken from US20230303649A1 (published 2023).

T1: IL-2R on human primary T cells (human, UniProt P01589 22-272; P14784 27-551; P31785 23-369)
T1 sequence (looked up) 1: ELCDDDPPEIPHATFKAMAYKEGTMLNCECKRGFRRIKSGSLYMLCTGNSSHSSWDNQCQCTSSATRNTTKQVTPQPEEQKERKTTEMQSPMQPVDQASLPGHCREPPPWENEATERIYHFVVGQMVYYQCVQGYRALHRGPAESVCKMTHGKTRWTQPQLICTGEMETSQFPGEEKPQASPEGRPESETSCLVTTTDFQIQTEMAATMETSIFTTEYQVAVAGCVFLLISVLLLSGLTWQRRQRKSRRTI
T1 sequence (looked up) 2: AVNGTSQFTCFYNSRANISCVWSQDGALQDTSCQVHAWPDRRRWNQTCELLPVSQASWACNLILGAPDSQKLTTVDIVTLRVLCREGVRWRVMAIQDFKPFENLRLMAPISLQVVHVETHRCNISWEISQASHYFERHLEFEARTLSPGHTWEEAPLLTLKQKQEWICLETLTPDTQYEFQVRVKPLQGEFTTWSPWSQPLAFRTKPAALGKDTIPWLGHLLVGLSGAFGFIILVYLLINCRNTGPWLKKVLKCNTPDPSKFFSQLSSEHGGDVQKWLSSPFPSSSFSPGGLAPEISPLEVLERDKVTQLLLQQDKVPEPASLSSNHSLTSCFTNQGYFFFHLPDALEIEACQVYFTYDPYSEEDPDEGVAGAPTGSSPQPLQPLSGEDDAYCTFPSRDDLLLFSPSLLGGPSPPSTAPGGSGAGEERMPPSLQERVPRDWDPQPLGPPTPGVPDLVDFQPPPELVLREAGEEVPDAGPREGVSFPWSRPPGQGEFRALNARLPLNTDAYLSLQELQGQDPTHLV
T1 sequence (looked up) 3: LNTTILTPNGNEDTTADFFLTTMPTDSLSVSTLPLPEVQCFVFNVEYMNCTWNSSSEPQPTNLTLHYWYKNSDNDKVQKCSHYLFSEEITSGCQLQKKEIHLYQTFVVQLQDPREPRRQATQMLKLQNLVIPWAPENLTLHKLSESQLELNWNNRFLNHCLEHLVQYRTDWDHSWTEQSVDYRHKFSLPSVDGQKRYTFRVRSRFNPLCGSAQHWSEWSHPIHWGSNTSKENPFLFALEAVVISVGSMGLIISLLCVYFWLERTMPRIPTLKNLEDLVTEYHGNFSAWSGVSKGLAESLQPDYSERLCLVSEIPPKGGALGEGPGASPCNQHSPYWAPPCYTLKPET


Molecular target: T1, IL-2R on human primary T cells
Experiment: cell-based or functional assay

| Binder | CD8 EC50 (nM), STAT5 phosphorylation | Treg EC50 (nM), STAT5 phosphorylation | CD4 conv EC50 (nM), STAT5 phosphorylation | CD8 naïve EC50 (nM), STAT5 phosphorylation |
| --- | --- | --- | --- | --- |
| SEQ ID NO 11 (ligand) APTSSSTKKTQLQLEHLRLDLEMILNGINNYKNPKLTRMLTFKFYMPKKATELKHLQCLEEELKPLEEVLNLAQSKNFHLRPRDLISNINVIVLELKGSETTFMCEYADETATIVEFLNRWITFSTSIISTLT | 650 nM | 3.96 nM | – | – |
| SEQ ID NO 13 (ligand) APTSSSTKKTQLQLEHLLLDLQMILNGINNHKNPRLTRMLTFKFYMPKKATELKHLQCLEEELKPLEEALRLAPSKNFHLRPRDLISDINVIVLELKGSETTFMCEYADETATIVEFLNRWITFSQSIISTLT | 8650 nM | 0.65 nM | 4160 nM | 8410 nM |
| SEQ ID NO 16 (ligand) APTSSSTKKTQLQLEHLRLDLEMILNGINNYKNPKLTRMLTFKFYMPKKATELKHLQCLEEELKPLEEVLNLAQSKNFHFDPRDVVSNINVFVLELKGSETTFMCEYADETATIVEFLNRWITFSQSIISTLT | 1.68 nM | 0.03 nM | 1.31 nM | 1.81 nM |
| SEQ ID NO 12 (ligand) APTSSSTKKTQLQLEHLRLDLEMILNGINNYKNPKLTRMLTFKFYMPKKATELKHLQCLEEELKPLEEVLNLAQSKNFHFDPRDVVSDINVFVLELKGSETTFMCEYADETATIVEFLNRWITFSTSIISTLT | 650 nM | 200 nM | – | – |
| SEQ ID NO 14 (ligand) APTSSSTKKTQLQLEHLLLDLQMILNGINNHKNPRLTRMLTFKFYMPKKATELKHLQCLEEELKPLEEVLNLAPSKNFHLRPRDLISNINVIVLELKGSETTFMCEYADETATIVEFLNRWITFSQSIISTLT | 372 nM | 0.29 nM | 29.1 nM | 444 nM |
| SEQ ID NO 17 (ligand) APTSSSTKKTQLQLEHLRLDLQMILNGINNYKNPKLTRMLTFKFYMPKKATELKHLQCLEEELKPLEEVLNLAQSKNFHFDPRDVVSNINVFVLELKGSETTFMCEYADETATIVEFLNRWITFSTSIISTLT | 10000 nM | 1000 nM | 1000 nM | 10000 nM |
| SEQ ID NO 15 (ligand) APTSSSTKKTQLQLEHLLLDLQMILNGINNHKNPRLTRMLTFKFYMPKKATELKHLQCLEEELKPLEEVLRLAPSKNFHLRPRDLISNINVIVLELKGSETTFMCEYADETATIVEFLNRWITFSQSIISTLT | 28.4 nM | 0.01 nM | 2.52 nM | 29.8 nM |
| SEQ ID NO 20 (ligand) APTSSSTKKTQLQLEHLLLDLQMILNGINNHKNPKLTRMLTFKFYMPKKATELKHLQCLEEELKPLEEALRLAPSKNFHLRPRDLISNINVIVLELKGSETTFMCEYADETATIVEFLNRWITFSQSIISTLT | 227 nM | 0.03 nM | 1.2 nM | 312 nM |
| SEQ ID NO 18 (ligand) APTSSSTKKTQLQLEHLLLDLQMILNGINNYKNPKLTRMLTFKFYMPKKATELKHLQCLEEELKPLEEVLNLAQSKNFHFDPRDVVSNINVFVLELKGSETTFMCEYADETATIVEFLNRWITFSQSIISTLT | 23.5 nM | 0.08 nM | 15.9 nM | 21.1 nM |
| SEQ ID NO 9 (ligand) APTSSSTKKTQLQLEHLLLDLQMILNGINNHKNPRLTRMLTFKFYMPKKATELKHLQCLEEELKPLEEALRLAPSKNFHLRPRDLISNINVIVLELKGSETTFMCEYADETATIVEFLNRWITFSQSIISTLT | 589 nM | 0.05 nM | 2.14 nM | 822 nM |

Next, values leading:

| CD8 EC50 (nM), STAT5 phosphorylation | Treg EC50 (nM), STAT5 phosphorylation | CD4 conv EC50 (nM), STAT5 phosphorylation | CD8 naïve EC50 (nM), STAT5 phosphorylation | Binder |
| --- | --- | --- | --- | --- |
| 10000 nM | 18.3 nM | 4000 nM | 10000 nM | SEQ ID NO 24 (ligand) APTSSSTKKTQLQLEHLLLDLQMILNGINNHKNPKLTRMLTFKFYMPKKATELKHLQCLEEELKPLEEVLRLAQSKNFHLRPRDLISDINVIVLELKGSETTFMCEYADETATIVEFLNRWITFSTSIISTLT |
| 1000 nM | 2.44 nM | 1000 nM | 1000 nM | SEQ ID NO 34 (ligand) APTSSSTKKTQLQLEHLLLDLQMILNGINNHKNPKLTRMLTFKFYMPKKATELKHLQCLEEELKPLEEVLNLAQSKNFHLRPRDLISDINVIVLELKGSETTFMCEYADETATIVEFLNRWITFSQSIISTLT |
| 10000 nM | 11.7 nM | 4000 nM | 10000 nM | SEQ ID NO 36 (ligand) APTSSSTKKTQLQLEHLLLDLQMILNGINNHKNPKLTRMLTFKFYMPKKATELKHLQCLEEELKPLEEALNLAQSKNFHLRPRDLISDINVIVLELKGSETTFMCEYADETATIVEFLNRWITFSQSIISTLT |
| 10000 nM | 15.7 nM | 7000 nM | 10000 nM | SEQ ID NO 35 (ligand) APTSSSTKKTQLQLEHLLLDLQMILNGINNHKNPKLTRMLTFKFYMPKKATELKHLQCLEEELKPLEEVLNLAPSKNFHLRPRDLISDINVIVLELKGSETTFMCEYADETATIVEFLNRWITFSQSIISTLT |
| 10000 nM | 1.11 nM | 5500 nM | 10000 nM | SEQ ID NO 37 (ligand) APTSSSTKKTQLQLEHLLLDLQMILNGINNHKNPKLTRMLTFKFYMPKKATELKHLQCLEEELKPLEEALRLAPSKNFHLRPRDLISDINVIVLELKGSETTFMCEYADETATIVEFLNRWITFSQSIISTLT |
| 151 nM | 0.07 nM | 4.81 nM | 204 nM | SEQ ID NO 21 (ligand) APTSSSTKKTQLQLEHLLLDLQMILNGINNHKNPKLTRMLTFKFYMPKKATELKHLQCLEEELKPLEEALNLAPSKNFHLRPRDLISNINVIVLELKGSETTFMCEYADETATIVEFLNRWITFSQSIISTLT |
| 10000 nM | 91.9 nM | 5500 nM | 10000 nM | SEQ ID NO 39 (ligand) APTSSSTKKTQLQLEHLLLDLQMILNGINNYKNPKLTRMLTFKFYMPKKATELKHLQCLEEELKPLEEVLRLAQSKNFHLRPRDLISDINVIVLELKGSETTFMCEYADETATIVEFLNRWITFSQSIISTLT |
| 10000 nM | 0.4 nM | 8880 nM | 10000 nM | SEQ ID NO 38 (ligand) APTSSSTKKTQLQLEHLLLDLQMILNGINNYKNPKLTRMLTFKFYMPKKATELKHLQCLEEELKPLEEALRLAPSKNFHLRPRDLISDINVIVLELKGSETTFMCEYADETATIVEFLNRWITFSQSIISTLT |
| 1820 nM | 0.49 nM | 1000 nM | 1880 nM | SEQ ID NO 23 (ligand) APTSSSTKKTQLQLEHLLLDLQMILNGINNHKNPKLTRMLTFKFYMPKKATELKHLQCLEEELKPLEEVLRLAQSKNFHLRPRDLISDINVIVLELKGSETTFMCEYADETATIVEFLNRWITFSQSIISTLT |
